Results reported in the supplement of paper PMC10567573.

B1: SMG5 (parent)
chain: FVSIAQSEQESLLQQAQAQFRMAQ

Variants of: B1
Assay: protein stability index of a GFP-peptide fusion (GPS, HEK-293T) (PSI 1-6); higher = more stable
Conditions: c terminus: a fixed tail appended
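Note: lentivirally expressed fusions sorted by FACS into six bins by GFP to DsRed ratio, PSI derived from sequencing read proportions per bin multiplied by bin number.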

Row | Variant | protein stability index
1 | FVSIAQSEQESPLQQAQAQFRMAQ [L12P] | 2.48
2 | FVSIAQSEQESWLQQAQAQFRMAQ [L12W] | 1.75
3 | FVSIAQSEQESMLQQAQAQFRMAQ [L12M] | 2.44
4 | FVSIAQSEQESSLQQAQAQFRMAQ [L12S] | 2.21
5 | FVSIAQSEQESNLQQAQAQFRMAQ [L12N] | 2.64
6 | FVSIAQSEQESTLQQAQAQFRMAQ [L12T] | 2.54
7 | FVSIAQSEQESRLQQAQAQFRMAQ [L12R] | 2.4
8 | FVSIAQSEQESVLQQAQAQFRMAQ [L12V] | 2.31
9 | FVSIAQSEQESQLQQAQAQFRMAQ [L12Q] | 2.66
10 | FVSIAQSEQESYLQQAQAQFRMAQ [L12Y] | 1.61
11 | FVSIAQSEQESLLQQIQAQFRMAQ [A16I] | 2.16
12 | FVSIAQSEQESLLQQQQAQFRMAQ [A16Q] | 2.55
13 | FVSIAQSEQESLLQQLQAQFRMAQ [A16L] | 1.73
14 | FVSIAQSEQESLLQQGQAQFRMAQ [A16G] | 2.09
15 | FVSIAQSEQESLLQQWQAQFRMAQ [A16W] | 1.94
16 | FVSIAQSEQESLLQQKQAQFRMAQ [A16K] | 1.68
17 | FVSIAQSEQESLLQQDQAQFRMAQ [A16D] | 2.44
18 | FVSIAQSEQESLLQQSQAQFRMAQ [A16S] | 1.94
19 | FVSIAQSEQESLLQQRQAQFRMAQ [A16R] | 2.53
20 | FVSIAQSEQESLLQQPQAQFRMAQ [A16P] | 1.88
21 | FVSIAQSEQESLLQQMQAQFRMAQ [A16M] | 2.2
22 | FVSIAQSEQESLLQQYQAQFRMAQ [A16Y] | 1.86
23 | FVSIAQSEQESLLQQHQAQFRMAQ [A16H] | 2.56
24 | FVSIAQSEQESLLQQNQAQFRMAQ [A16N] | 2.37

Row | Variant | protein stability index
25 | FVSIAQSEQESLLQQCQAQFRMAQ [A16C] | 1.36
26 | FVSIAQSEQESLLQQVQAQFRMAQ [A16V] | 1.78
27 | FVSIAQSEQESLLQQEQAQFRMAQ [A16E] | 2.43
28 | FVSIAQSEQESLLQQTQAQFRMAQ [A16T] | 2.69
29 | FVSIAQSEQESLLQQFQAQFRMAQ [A16F] | 2.47
30 | FVSIAQSEQESLFQQAQAQFRMAQ [L13F] | 1.5
31 | FVSIAQSEQESLPQQAQAQFRMAQ [L13P] | 3.08
32 | FVSIAQSEQESLIQQAQAQFRMAQ [L13I] | 2.87
33 | FVSIAQSEQESLTQQAQAQFRMAQ [L13T] | 2.28
34 | FVSIAQSEQESLEQQAQAQFRMAQ [L13E] | 2.13
35 | FVSIAQSEQESLYQQAQAQFRMAQ [L13Y] | 1.31
36 | FVSIAQSEQESLDQQAQAQFRMAQ [L13D] | 3
37 | FVSIAQSEQESLKQQAQAQFRMAQ [L13K] | 2.52
38 | FVSIAQSEQESLMQQAQAQFRMAQ [L13M] | 2.66
39 | FVSIAQSEQESLQQQAQAQFRMAQ [L13Q] | 2.6
40 | FVSIAQSEQESLAQQAQAQFRMAQ [L13A] | 2.14
41 | FVSIAQSEQESLHQQAQAQFRMAQ [L13H] | 3.08
42 | FVSIAQSEQESLRQQAQAQFRMAQ [L13R] | 2.07
43 | FVSIAQSEQESLSQQAQAQFRMAQ [L13S] | 2.74
44 | FVSIAQSEQESLCQQAQAQFRMAQ [L13C] | 2.88
45 | FVSIAQSEQESLVQQAQAQFRMAQ [L13V] | 2.68
46 | FVSIAQSEQESLNQQAQAQFRMAQ [L13N] | 2.74
47 | FVSIAQSEQESLWQQAQAQFRMAQ [L13W] | 2.19
48 | FVSIAQSEQESLLQSAQAQFRMAQ [Q15S] | 2.27

Row | Variant | protein stability index
49 | FVSIAQSEQESLLQRAQAQFRMAQ [Q15R] | 2.44
50 | FVSIAQSEQESLLQDAQAQFRMAQ [Q15D] | 2.55
51 | FVSIAQSEQESLLQEAQAQFRMAQ [Q15E] | 2.32
52 | FVSIAQSEQESLLQGAQAQFRMAQ [Q15G] | 2.55
53 | FVSIAQSEQESLLQNAQAQFRMAQ [Q15N] | 2.5
54 | FVSIAQSEQESLLQFAQAQFRMAQ [Q15F] | 1.4
55 | FVSIAQSEQESLLQHAQAQFRMAQ [Q15H] | 2.24
56 | FVSIAQSEQESLLQLAQAQFRMAQ [Q15L] | 1.61
57 | FVSIAQSEQESLLQPAQAQFRMAQ [Q15P] | 2.28
58 | FVSIAQSEQESLLQMAQAQFRMAQ [Q15M] | 2.12
59 | FVSIAQSEQESLLQYAQAQFRMAQ [Q15Y] | 2.17
60 | FVSIAQSEQESLLQIAQAQFRMAQ [Q15I] | 2.21
61 | FVSIAQSEQESLLQAAQAQFRMAQ [Q15A] | 1.44
62 | FVSIAQSEQESLLQVAQAQFRMAQ [Q15V] | 2.34
63 | FVSIAQSEQESLLQWAQAQFRMAQ [Q15W] | 2.55
64 | FVSIAQSEQESLLQCAQAQFRMAQ [Q15C] | 1.85
65 | FVSIAQSEQESLLQKAQAQFRMAQ [Q15K] | 2.22
66 | FVSIAQSEQESLLQTAQAQFRMAQ [Q15T] | 1.59
67 | FVSIAQSEQESLLDQAQAQFRMAQ [Q14D] | 2.4
68 | FVSIAQSEQESLLLQAQAQFRMAQ [Q14L] | 2.4
69 | FVSIAQSEQESLLWQAQAQFRMAQ [Q14W] | 2.52
70 | FVSIAQSEQESLLIQAQAQFRMAQ [Q14I] | 2.25
71 | FVSIAQSEQESLLEQAQAQFRMAQ [Q14E] | 2.88
72 | FVSIAQSEQESLLVQAQAQFRMAQ [Q14V] | 1.64

Row | Variant | protein stability index
73 | FVSIAQSEQESLLMQAQAQFRMAQ [Q14M] | 2.18
74 | FVSIAQSEQESLLRQAQAQFRMAQ [Q14R] | 2.21
75 | FVSIAQSEQESLLYQAQAQFRMAQ [Q14Y] | 1.7
76 | FVSIAQSEQESLLSQAQAQFRMAQ [Q14S] | 2.54
77 | FVSIAQSEQESLLTQAQAQFRMAQ [Q14T] | 2.09
78 | FVSIAQSEQESLLFQAQAQFRMAQ [Q14F] | 1.84
79 | FVSIAQSEQESLLKQAQAQFRMAQ [Q14K] | 2.79
80 | FVSIAQSEQESLLAQAQAQFRMAQ [Q14A] | 2.11
81 | FVSIAQSEQESLLGQAQAQFRMAQ [Q14G] | 2.77
82 | FVSIAQSEQESLLPQAQAQFRMAQ [Q14P] | 2.17
83 | FVSIAQSEQESLLHQAQAQFRMAQ [Q14H] | 2.4
84 | FVSIAQSEQESLLNQAQAQFRMAQ [Q14N] | 2.59
85 | FVSIAQSEQESLLCQAQAQFRMAQ [Q14C] | 1.79
86 | FVSIAQSEQESLLQQAGAQFRMAQ [Q17G] | 2.17
87 | FVSIAQSEQESLLQQAHAQFRMAQ [Q17H] | 1.91
88 | FVSIAQSEQESLLQQAFAQFRMAQ [Q17F] | 1.85
89 | FVSIAQSEQESLLQQAAAQFRMAQ [Q17A] | 1.95
90 | FVSIAQSEQESLLQQAIAQFRMAQ [Q17I] | 2.02
91 | FVSIAQSEQESLLQQADAQFRMAQ [Q17D] | 2.37
92 | FVSIAQSEQESLLQQACAQFRMAQ [Q17C] | 1.76
93 | FVSIAQSEQESLLQQAEAQFRMAQ [Q17E] | 2.22
94 | FVSIAQSEQESLLQQAKAQFRMAQ [Q17K] | 2.33
